Our source for the EC50, 癌细胞增殖抑制作用 (CT26 mouse colorectal cancer cells, CCK-8, 10 μg/mL antibody, 5 days) and Kd values is patent publication CN117751141A.

Assay [1] deals with T1, CD300c抗原(11832-H08H，义翘神州) (UniProt Q08708).
T1 sequence (looked up): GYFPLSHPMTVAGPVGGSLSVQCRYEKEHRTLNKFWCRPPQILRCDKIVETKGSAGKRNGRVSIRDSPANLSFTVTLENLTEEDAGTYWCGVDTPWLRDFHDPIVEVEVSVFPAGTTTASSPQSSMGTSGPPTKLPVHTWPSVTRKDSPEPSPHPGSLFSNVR
Kind of assay: binding ELISA, CD300c antigen coated at 8 μg/mL, HRP anti-Fc IgG. For orientation: An ELISA detects its analyte on a solid surface through an enzyme-linked reagent.

Assay [2] addresses T2, CD300c overexpressed on the surface of 293T cells and THP-1 cells (UniProt Q08708).
T2 sequence (looked up): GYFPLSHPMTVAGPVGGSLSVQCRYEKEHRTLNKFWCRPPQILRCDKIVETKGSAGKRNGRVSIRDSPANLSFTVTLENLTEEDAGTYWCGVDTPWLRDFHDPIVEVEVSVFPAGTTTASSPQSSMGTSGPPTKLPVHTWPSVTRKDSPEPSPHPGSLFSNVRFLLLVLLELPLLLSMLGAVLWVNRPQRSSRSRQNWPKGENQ
Kind of assay: flow cytometry (FACS binding) on THP-1 cells overexpressing CD300c, FITC anti-human IgG (H+L), MFI.

The target of another assay is T3, 小鼠CD300c抗原 (小鼠 (mouse)).
T3 sequence (A2A7V7 whole entry, looked up): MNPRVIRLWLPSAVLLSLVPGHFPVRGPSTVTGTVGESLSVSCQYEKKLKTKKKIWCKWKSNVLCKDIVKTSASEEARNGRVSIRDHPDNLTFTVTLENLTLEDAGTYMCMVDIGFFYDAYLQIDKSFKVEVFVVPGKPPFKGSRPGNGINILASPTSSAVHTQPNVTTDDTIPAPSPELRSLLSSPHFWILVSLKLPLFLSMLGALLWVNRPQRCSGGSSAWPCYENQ
The experiment in a line: cell-based or functional assay.

The target of assay [3] is T2, CD300c overexpressed on the surface of 293T cells and THP-1 cells. Kind of assay: flow cytometry (FACS binding) on 293T cells overexpressing CD300c, FITC anti-human IgG (H+L), MFI.
For assay [4], the target named is T1, CD300c抗原(11832-H08H，义翘神州). The experiment in a line: SPR, CD300c immobilised on CM5 chip (399.2 RU), CL7 0-6.25 μg/mL as analyte. A general note: SPR reads the build-up and loss of mass on a sensor chip optically.

One may read the EC50 as the concentration giving half of the maximal effect. Low values mean a more potent agent, high ones a less potent agent. As a reminder, the Kd is the equilibrium constant for the complex coming apart. High values mean weaker binding, low ones tighter binding.

B1: 抗CD300c单克隆抗体 CL6 (antibody, from another filing, V domains shown)
VH: EVQLLESGGGLVQPGGSLRLSCAASGFTFSSYGMHWVRQAPGKGLEWVSAISGSGGSTYYADSVKGRFTISRDNSKNTLYLQMNSLRAEDTAVYYCAVSGAGRGFFDYWGQGTLVTVSS
VL: QSVLTQPPSASGTPGQRVTISCSGSSSNIGSNYVYWYQQLPGTAPKLLIYEDNKRPSGVPDRFSGSKSGTSASLAISGLRSEDEADYYCSSYTSSSTVIFGGGTKLTVL
With B1, in assay [1], the EC50 came to 0.148 µg/mL.

B2: 抗CD300c单克隆抗体 SK13 (antibody, from another filing, V domains shown)
VH: RVQLLESGGGLVQPGGSLRLSCAASGFTFSDYAMSWVRQAPGKGLEWVSSISSSSSYIYYTDSVKGRFTISRDNSKNTLYLQMNSLRAEDTAVYYCARGGYGFDYWGQGTLVTVSS
VL: EIVLTQSPGTLSLSPGERATLSCRASQSISSYLNWYQQKPGQAPRLLIYSASSRPQGIPDRFSGSGSGTDFTLTISRLEPEDFAVYYCQQYDDLPFTFGQGTKVEIK
For the molecule B2, the EC50 in assay [1] amounted to 0.044 µg/mL.

B3: 抗CD300c单克隆抗体 SK16 (antibody, from another filing, V domains shown)
VH: RVQLLESGGGLVQPGGSLRLSCAASGFTFSSYAMSWVRQAPGKGLEWVSAINGSGGSTLYADSVKGRFTISRDNSKNTLYLQMNSLRAEDTAVYYCARGVSGFDSWGQGTLVTVSS
VL: EIVLTQSPGTLSLSPGERATLSCRISQSISSYLNWYQQKPGQAPRLLIYDASLRATGIPDRFSGSGSGTDFTLTISRLEPEDFAVYYCQQSYKTPITFGQGTKVEIK
In the case of B3, in assay [1], the EC50 was found to be 2.42 µg/mL.

B4: 抗CD300c单克隆抗体 CL5 (antibody, from another filing, V domains shown)
VH: RVQLLESGGGLVQPGGSLRLSCAASGFTFSSYAMHWVRQAPGKGLEWVSSISGGGYGTYYADSVKGRFTISRDNSKNTLYLQMNSLRAEDTAVYYCARSTVWAFDIWGQGTLVTVSS
VL: QSVLTQPPSASGTPGQRVTISCSGNNIGSKSVHWYQQLPGTAPKLLIYDVSKRPSERPDRFSGSKSGTSASLAISDLRSEDEADYYCQSFDSSGTWIFGGGTKLTVL
On to B4, for which the EC50 in assay [1] stood at 0.032 µg/mL.

B5: 抗CD300c单克隆抗体 CL7 (antibody, from another filing, V domains shown)
VH: EVQLLESGGGLVQPGGSLRLSCAASGFTFSRYAMSWVRQAPGKGLEWVSAISGSGGSTYYADSVKGRFTISRDNSKNTLYLQMNSLRAEDTAVYYCARSSQGIFDIWGQGTLVTVSS
VL: QSVLTQPPSASGTPGQRVTISCSGNNIGTRRVHWYQQLPDTAPKLLIYSKNNRPSGVPDRFSGSKSGTSASLAISGLRSEDEADYYCAAWDDSLSGPVFGGGTKLTVL
Turning to B5, the EC50 in assay [1] was 0.047 µg/mL; in assay [2], 2.6 nM; in assay [3], 2.7 nM. Besides, the 癌细胞增殖抑制作用 (CT26 mouse colorectal cancer cells, CCK-8, 10 μg/mL antibody, 5 days) with 小鼠CD300c抗原 (小鼠 (mouse)) was 66 %. This molecule also showed a Kd in assay [4] of 0.52 nM.

B6: 抗CD300c单克隆抗体 CL9 (antibody, from another filing, V domains shown)
VH: EVQLLESGGGLVQPGGSLRLSCAASGFTFSSYYWSWVRQAPGKGLEWVSAISGSGGSTYYADSVKGRFTISRDNSKNTLYLQMNSLRAEDTAVYYCARIDVYGFDIWGQGTLVTVSS
VL: QSVLTQPPSASGTPGQRVTISCSGSTSNIGTNYVYWYQQLPGTAPKLLIYDNNNRPSGVPDRFSGSKSGTSASLAISGLRSEDEADYYCQTWDSSTDVVFGGGTKLTVL
As to B6, the EC50 in assay [1] is 0.094 µg/mL.

B7: 抗CD300c单克隆抗体 SK17 (antibody, from another filing, V domains shown)
VH: EVQLLESGGGLVQPGGSLRLSCAASGFTFSSYYWSWVRQAPGKGLEWVSTITGSGGSTDYANSVKGRFTISRDNSKNTLYLQMNSLRAEDTAVYYCATGGGIFDYWGQGTLVTVSS
VL: EIVLTQSPGTLSLSPGERATLSCQASQTISNYLNWYQQKPGQAPRLLIYDASNRATGIPDRFSGSGSGTDFTLTISRLEPEDFAVYYCQQYNSYPPSFGQGTKVEIK
With B7, the EC50 in assay [1] came to 0.054 µg/mL.

B8: 抗CD300c单克隆抗体 SL18 (antibody, from another filing)
chain: RVQLLESGGGLVQPGGSLRLSCAASGFTFSDYHMHWVRQAPGKGLEWVSTISSSGGYTYYAESVKSRFTISRDNSKNTLYLQMNSLRAEDTAVYYCARSIRLPLDYWGQGTLVTVSSSGGGSGGGGSGGGGSQSVLTQPPSASGTPGQRVTISCSGNNIGSKGVHWYQQLPGTAPKLLIYEDSKRPSGVRDRFSGSKSGTSASLAISGLRSEDEADYYCQSYDSTKGVVFGGGTKLTVL
Consider B8, for which, in assay [1], the concentration giving a half-maximal response (EC50) was 0.17 µg/mL. In addition, the 癌细胞增殖抑制作用 (CT26 mouse colorectal cancer cells, CCK-8, 10 μg/mL antibody, 5 days) with 小鼠CD300c抗原 (小鼠 (mouse)) is 38 %.

B9: 抗CD300c单克隆抗体 SK14 (antibody, from another filing)
chain: EVQLLESGGGLVQPGGSLRLSCAASGFTFSNFAIAWVRQAPGKGLEWVSAISGRGTSTYYADSVKGRFTISRDNSKNTLYLQMNSLRAEDTAVYYCARGVSGFDSWGQGTLVTVSSGGGGSGGGGSGGGGSEIVLTQSPGTLSLSPGERATLSCRASQSISSHLAWYQQKPGQAPRLLIYDTSNRATGIPDRFSGSGSGTDFTLTISRLEPEDFAVYYCQQSYSTPFTFGQGTKVEIK
Consider B9, for which, in assay [1], the EC50 came to 0.065 µg/mL.

B10: 抗CD300c单克隆抗体 CK1 (antibody, from another filing, V domains shown)
VH: EVQLLESGGGLVQPGGSLRLSCAASGFTFSRYAMTWVRQAPGKGLEWVSSMSGTGGTTYYADSVKGRFTISRDNSKNTLYLQMNSLRAEDTAVYYCARGAYGFDHWGQGTLVTVSS
VL: EIVLTQSPGTLSLSPGERATLSCRASQSIGNYLNWYQQKPGQAPRLLIYDASNLETGIPDRFSGSGSGTDFTLTISRLEPEDFAVYYCQQSSAIPYTFGQGTKVEIK
Regarding B10, the 50% effective concentration (EC50) in assay [1] was determined as 0.056 µg/mL.

B11: 抗CD300c单克隆抗体 SK12 (antibody, from another filing)
chain: RVQLLESGGGLVQPGGSLRLSCAASGFTFSSYAMHWVRQAPGKGLEWVSAISGSGGDTYHADSVKGRFTISRDNSKNTLYLQMNSLRAEDTAVYYCTRGLSGFDYWGQGTLVTVSSGGGGSGGGGSGGGGSEIVLTQSPGTLSLSPGERATLSCRASQSISSYLNWYQQKPGQAPRLLIYDASNRAPGIPDRFSGSGSGTDFTLTISRLEPEDFAVYYCQQSYSIPITFGQGTKVEIK
With B11, the EC50 in assay [1] turned out to be 0.067 µg/mL. The EC50 values of the last two molecules are within 1.5-fold of each other.

B12: 抗CD300c单克隆抗体 CL10 (antibody, from another filing, V domains shown)
VH: EVQLLESGGGLVQPGGSLRLSCAASGFTFSSYGMHWVRQAPGKGLEWVSAISGSGGSTYYADSVKGRFTISRDNSKNTLYLQMNSLRAEDTAVYYCASGYGLMDVWGQGTLVTVSS
VL: QSVLTQPPSASGTPGQRVTISCTRSSGIIASNYVQWYQQLPGTAPKLLIYRNNQRPSGVPDRFSGSKSGTSASLAISGLRSEDEADYYCSSYAGNNNLVFGGGTKLTVL
In turn, B12 came in with a half-maximal effective concentration (EC50) in assay [1] of 0.039 µg/mL. The 癌细胞增殖抑制作用 (CT26 mouse colorectal cancer cells, CCK-8, 10 μg/mL antibody, 5 days) with 小鼠CD300c抗原 (小鼠 (mouse)) was 15 %.

B13: 抗CD300c单克隆抗体 CK2 (antibody, from another filing, V domains shown)
VH: EVQLLESGGGLVQPGGSLRLSCAASGFTFSSYGMHWVRQAPGKGLEWVSAISGSGTSIYYADSVKGRFTISRDNSKNTLYLQMNSLRAEDTAVYYCARGGTAFDYWGQGTLVTVSS
VL: EIVLTQSPGTLSLSPGERATLSCRASQRSDNYLAWYQQKPGQAPRLLIYDASNRATGIPDRFSGSGSGTDFTLTISRLEPEDFAVYYCQQSYSTPFTFGQGTKVETK
As for B13, in assay [1], the EC50 worked out at 0.033 µg/mL.

B14: 抗CD300c单克隆抗体 SK11 (antibody, from another filing, V domains shown)
VH: RVQLLESGGGLVQPGGSLRLSCAASGFTFSTYGMHWVRQAPGKGLEWVSAISGSGGSTYYADSVKGRFTISRDNSKNTLYLQMNSLRAEDTAVYYCARGLSGLDYWGQGTLVTVSS
VL: EIVLTQSPGTLSLSPGERATLSCRSSQGITNYLAWYQQKPGQAPRLLIYDASNRATGIPDRFSGSGSGTDFTLTISRLEPEDFAVYYCQQSYSTPLTFGQGTKVEIK
Take B14: the 50% effective concentration (EC50) in assay [1] worked out at 0.052 µg/mL.

B15: 抗CD300c单克隆抗体 SK15 (antibody, from another filing, V domains shown)
VH: RVQLLESGGGLVQPGGSLRLSCAASGFTFSSYAMHWVRQAPGKGLEWVSAINGSGGSTYYADSVKGRFTISRDNSKNTLYLQTNSLRAEDTAVYYCARGLQGFDYWGQGTLVTVSS
VL: EIVLTQSPGTLSLSPGERATLSCQASQDITNYLNWYQQKPGQAPRLLIYDASSLETGIPDRFSGSGSGTDFTLTISRLEPEDFAVYYCQQSYSTPITFGQGTKVEIK
As for B15, the concentration for a half-maximal effect (EC50) in assay [1] was 14.7 µg/mL. This EC50 is about 280-fold higher than that of the molecule before.

B16: 抗CD300c单克隆抗体 CK3 (antibody, from another filing, V domains shown)
VH: RVQLLESGGGLVQPGGSLRLSCAASGFTFSSYAISWVRQAPGKGLEWVSATSGSGRATYYADSVKGRFTISRDNSKNTLYLQMNSLRAEDTAVYYCARDTWWEGYFDLWGQGTLVTVSS
VL: EIVLTQSPGTLSLSPGERATLSCQASHISTHLNWYQQKPGQAPRLLIYGASSRATGIPDRFSGSGSGTDFTLTISRLEPEDFAVYYCQQYNTYPPTFGQGTKVEIK
As to B16, the EC50 in assay [1] was 0.793 µg/mL.

B17: 抗CD300c单克隆抗体 CL4 (antibody, from another filing, V domains shown)
VH: RVQLLESGGGLVQPGGSLRLSCAASGFTFGSNYMSWVRQAPGKGLEWVSTISGSGTSTYYADSLKGRFTISRDNSKNTLYLQMNSLRAEDTAVYYCARGMWGMDVWGQGTLVTVSS
VL: QSVLTQPPSASGTPGQRVTISCTGKHRHTVNWYQLLPGTAPKLLIYLDSERPSGVPDRFSGSKSGTSASLAISGLRSEDEADYYCQSYDSSSVVFGGGTKLTVL
Take B17: in assay [1], the EC50 turned out to be 0.031 µg/mL.
